Data: a protein production outcome set (Wang et al. 2014)

Experiment: label from the status in PepcDB records

Row | Sequence | protein production
1 | MEYQLSQAGNKGKVLILKVTGIFFVALAILGVVLPILPTTPFLLVAAACFAKSSPTMQRKLLANKTFGPLIHDWQKYRSIPRKAKRIALLTMILSVCWSAFMLQSVMLTALVVALVIGPFIFLLRLPESK | failed
2 | MFACMGVLVKLAAAFFSNTELVFYRSLVGVITTFLVMRAYGMPLVTEHWKSHCWRGLSGLGGVLLFFYCILQLPLATAISLNNTWPLFLAFLAMILLKEEFSWLLAGALVVGFIGVIFLLRPTLAEGQWYLALIGIGSGLFAGIAHFHVRQLSELGESDWLTVFYFTLVCTVATGLWLTFTAFSAVSLQSLTLALGIGVTATLAQLAISRAHRGSNILIVGVLSYSSVLFAGLMDLFFWDARLPVSAWVGMGLIILGGLLSIRGIPVRNSSIVTLDD | failed
3 | MFAFPRLRFVLVGTQHPGNIGAAARAMKTMGISRLVLVAPECQLDEHAYRRSAGAEDVLEAASVHTVLADAVADCTFVLGCTARTRRVAFEELRPAAAASQILTNINAAGEVALLFGRERTGLTNEELQLCHVAVHIPADPLFSSLNLAAAVQILAYEIRLASLDAPSAPLHSTSGFRKTPASHAQLEGLFGQFKQTLDEIDFHKGRAPESAMRKLRRLFAKAELTQQEIRLLRGVLSDVQRIVMLKRQRDT | failed
4 | MFAIRRRCRPRPGQFQHGWSGLPTHTVPQAGSIAPIGRVRPSSVGNVRPTPECNVLPSFGRSSTNPSFPMEPIEDLDVLAEDEVRQREADGEVDEDLDRVKHGYDATAGDKQVYIETYGCQMNVNDSGIVASVLEESGYGLTRDQAAADVVLLNTCAIRENAERKIRARLSMLRSEKEKRDGELMLGVLGCMAERLREKLLEQEDLVDVVVGPDAYRDLPQLLYEADATGQAAVNVELSKQETYEDIQPVRYDSNGVSAYVSIMRGCDNMCTFCVVPFTRGREESRPVTTILSEVARLAEEGYKEVTLLGQNVNSYHYTDADGTSVSFAELVDRVSRVSPEMRVRYSTSHPKDCTDDLLKVHRDRPNVCNYIHLPVQHGNTEVLDRMRRTYTREEYLALTERAKELCPGVSLSTDLIAGFCGETEAQHEDTLSLMEEVRYDHAYMFKYSERPQTYAARKYEDDVPEDTKQRRLEEIIELQNQHAKESNEAEVGRVHTVLVEGPSKKSDAQFFGRTDTNKGVVFDREDYEKGDYVRVRIEDCTSSTLLGTAIEKTTLEAAARTDSITTSPAVA | failed
5 | MFAPQGLAQFIKVNVTLENGEPVFIYTDANGQVCQGDITVTQAGTITYLLNDQTLKGLKFVGVGFVTPFDGIIDAVTISSDGMLVQLVDLDKTPGTTKFQFVLSNTANTLLVLSPDPQIINRPQN | not failed
6 | MFARTAIAPPFAAMAAGRIPNTHDSDMAEARPDSLTRSRAAKPAGEGAAFSPLYRQIKELLVQSLDRGEWKPGELIPSEIDLAARFQVSQGTVRKAVDELAAEHLLLRRQGKGTFVATHHEARVRYRFLRLAPDEEGEGGRAESRILECRRLRAPAEIARALELRAGETVVTIRRQLSMNHMPTVIDDLWLPGTHFRGLTLELLTASKAPLYGLFESEFGVSMVRADEKLRAVAASPEIAPLLGVEPGRPLLQVDRISYTYGDRPMEVRRGLYLTDHYHYRNSLN | failed
7 | MFAYSARLFLRPLWSDDLGVLLDLLDTASSRSGLLDSPDNDVTRYLRDNAARLIHENDVTRPHSGIFLRDGKEPRLIGITALAGKEAHFFCWIAPAFRGQGFATEASRLMLHFADEALRLPSLTAAYDHADAAAEKLLTKLGFSE | failed
8 | MFCTFFEKHHRKWDILLEKSTGVMEAMKVTSEEKEQLSTAIDRMNEGLDAFIQLYNESEIDEPLIQLDDDTAELMKQARDMYGQEKLNEKLNTIIKQILSISVSEEGEKELKSNRIFISWLRWPLFIRIGVIILCLILLFGQIIYILEPKQFTSVFEGIWWAVVTVSTVGYGDYVPHTPLGQAAGILLILSGASFVTAYFATLSAAAFSRQHRYIEGKVAYKGRDHIILIGWNEKTNRLLKDLQLGAPSKTVVLIDESLTEGPLIENVHFIRGHAADDGTLKRANITEAESVMITADQYKSETDADMLSVLTLLSVKGLNPLAYCIVEILTDRFVTNAERAGANQIIGTSEFISRAMLQHYQVKLRRLNSRTESS | failed
9 | MFDFLTHDMLAVVWFFLWCVIWGVYFIADSFSLGAGLLTPFIAADKVQRIQIQSSVGPFWGGNEVWLILAAGGTFAAFPLVFSKMFTFLYLPMMLLLIGLIARGISVEYLHKDDNPRIQQFLMWGWFAGSLLVSLVLGVAFANFFKGLEIASGGVYKGTLPGLFGPYALISGVLFVLMSVTSGALWINVKTEGAVAAKAGDLAKKSALLVLIFALVYLAYSFAGVEGFATNYSSMPVLYLLPVLAVGGAVLSVFFAKKGRAFPAFCSNLLAFLFIVEGGLASIYPYMLKSSISPEYGIDIFEAASSHMTLSVMLGGALVFVPIVIIYQLWAYTLFREKITETEQVEY | failed
10 | MFDNDRLLLRVLLFGLLGASLWVLAPFWSALFWAAVLAFASWPLMRMLTRLLGGRESLAAGLLTLGWIVLVALPLIWLGFGLADNVRSLMELLKNLQVEGLPPPPSWMAGVPLIGDRLIGWWDSIDQQGVAFFYVLKPYVGEVGNWLLARSAKIGGGILELVLSLILIFFFYRDGPRLESIVHRALERLIGNRAEHYRDLVAGTVQRVVNGVIGTAAAQALLAWIGFMIAGVPGAMLLGLLTFACSLLMVPPLVWGPATAWLFFKGDYGHGVFLGLWGFFIISGVDNILKPYLISRGGNLPLVVVLLGVFGGLLAFGFMGLFLGPILLAVAYNLLSDWIASTPRTPPGEGRGPDA | failed
11 | MFDNLQRKFLNLIGIEIEEEDKPQESTKAKEENVKPKHETPKVVTIGKANQTEVTVYNLKLFDEVVKVCDALRENKIVVFNLEQVAEDHIQRIIDFVSGAVYVLDAKIHKVSKKIFVVVPRSIDLEVDEQLKEEFRTKGVFAWLK | failed
12 | MFEISRSRAKAMRPFLALATATVMMLSLAACSSSDNSSTNAQGNTDVAVGGQRFSTADQETAKLGSDAQPGQFPRTVVHAAGTTEITTKPERVVVLDTGELDSVLSLGITPVGMTTTKGANPVPSYLADKVKDVERVGTINELNIEAIAALKPDLIIGSQLRADKLYPQLSDIAPTVFSIRPGSPWKENFLLVGEALGMEKEAEEKLNEYADRVAELKNNVPQNTEVSLVRFMPNKLRLYGNKSLIGVVLADAGLARPEKQNVDDLAVEISPENIDQAAGSVIFYTSYGKPDATGETAVVEGPAWKNLEAVAAGKAHRVNDDVWFLGLGPTGAMEIVSDLHDYLLKK | failed
13 | MFFKQFYDKHLSQASYLIGCQKTGEAMIIDPIRDLSSYIRVADEEGLTITHAAETHIHADFASGIRDVAIKLNASIYVSGESDDTLGYKNMPNQTHFVQHNDDIYVGNIKLKVLHTPGHTPESISFLLTDEGAGAQVPMGLFSGDFIFVGDIGRPDLLEKAVKVEGSSEIGAKQMFKSIESIKDLPNYIQIWPGHGAGSPCGKSLGAIPTSTLGYEKQTNWAFSENNEATFIDKLISDQPAPPHHFAQMKKINQFGMNLYQPYTVYPATNTNRLTFDLRSKEAYHGGHIEGTINIPYDKNFINQIGWYLNYDQEINLIGEYHLVSKATHTLQLIGYDDVAGYQLPQSKIQTRSIHSEDITGNESHILDVRNDNEWNNGHLSQAVHVPHGKLLETDLPFNRNDVIYVHCQSGIRSSIAIGILEHKGYHNIINVNEGYKDIHLSLEHHHHHH | failed
14 | MFFTDWEGPWILTDFALELCMAVFNNARFFSNLSEYDDYLAYEVRREGYEAGYTLKLLTPFLAAAGVKNRDVERIAELSAKFVPDAEKAMATLQERWTPVVISTSYTQYLRRTASMIGVRGELHGTEVDFDSIAVPEGLREELLSIIDVIASLSGEELFRKLDELFSRSEVRKIVESVKAVGAGEKAKIMRGYCESKGIDFPVVVGDSISDYKMFEAARGLGGVAIAFNGNEYALKHADVAIISPTAMSEAKVIELFMERKERAFEVLSAVSIPETEIYIMENSDFGEVLEKSKRMRVRLRGLAGELG | not failed
15 | MFGFLRSTTSNDNTLSDTQVNESYRYWRLHIMIGMYIGYAGFYFTRKTFNYAAPAMITDLGLDKGDLGLIGTLFYISYGLSKFLSGTISDRSNPRYFMGLGLIATGLINIAFGFSSSLAAFISLWVLNAWFQGWGWPSCSKLLTTWYSRSERGFRWAIWNTAHNIGGALIPILVGYLTLHYSWREGFILPGIIGVAIGLIVCWRLRDKPTTMGLPSVGKWRNDPLELAQENHGQGLSYREILKTYVFSNKYIWLLAFSYVLVYIVRTAVNDWGNLYLTEEHNYSLINANAALSLFEIGGFVGSLVAGWGSDKLFGGNRGPMNILFAIGIFLSVSALWLMPLTNFVFQAAGLFSVGFFVFGPQMLIGMAAAECSHKDSAGAATGFVGLFAYMGAALSGYPLAVILETYGWTGFFITISTCAAVIGLLLLPFLQAQSPQKPIETRVRL | failed
16 | MFGTPSSSPSFGTPSSTPAFGTSSPAFGTPSATPAFGTPSNPSFSSGGFGSSLFSSPFSSQQPQQQQQQQQQQQPSSLFQQQPSSNFGFQSPFNNTAQQQQQTPFPNAQLTTQMAPVAPIPYSLADRDVQAIIEAYKEDPTNPKYAFQHLLFSVTEPQYRVKPAAVSDIMWAEAMSKLEGMDSTERERLWPQLVQGFKDLSQRLKLQDEVLVSDRDRIKTTQSNVKMLQRHLQASTFPSIERLRQKEQSLQRRMLRVMRIIEGLEGKGFRLPLTKGEAELSEKLTAITRQVKGPGAELSRRVQSLQTISRAQANSIAAGSSLYLPGSTKIDEQSLIDMQEVLQQETEAIGRLGNVLKRDMRDMEIMVAEDTEMALDS | failed
17 | MFHVSFRYIFGLPPLILVLLPVASSDCDIEGKDGKQYESVLMVSIDQLLDSMKEIGSNCLNNEFNFFKRHICDANKEGMFLFRAARKLRQFLKMNSTGDFDLHLLKVSEGTTILLNCTGQVKGRKPAALGEAQPTKSLEENKSLKEQKKLNDLCFLKRLLQEIKTCWNKILMGTKEH | failed
18 | MFIGGAIISFLFLFGYMWKEAHSNRIRHVTLSFPHFPDNGPPLTIFFISDIHRRSVSCRMLETVKGKADLVVIGGDLAEKGVPAARVRENVRRLQTVAPVYFVWGNNDDEVDYDLQSLLEEERVYVLKNKAEVWEHGGVPIALIGVGDVSRKEADIARALEHVPPESFRILACHNPAIIARLEDEQHISLVLSGHTHGGQIRLFSFGLYEKGGLKWHGNTALFTSNGYGTTGVPLRLGAPAETHLIKIVPGKLATEKLEHHHHHH | not failed
19 | MFIGIVSLFLTVLVYLGAKKVYQRFPRVYTSPLLVTPAVLVGLLLLVNVPYESYNLGGGLLTDMLQPATVAFAIPLYKYFPVLKKYAVEIILNVAVGSCIAIISTALIAKWLHLGTGLIDSLVPRSVTTPIAVHVSEMIGGMPAVTAVFVILTALLGTVIGPMVIRYFRIDNEIARGVLLGTSAHGAGTSKAFELSSVSGTISSVSMILAAIMTLWPAPFCFHLCKKLSSRGQFFLCASPY | failed
20 | MFILSAQRLSGTQVFRRLAEGCTGYSVSSGCRQRRRCCPGAPQRPRRVRVNALQLQSGLADPLDPKSEAEVREHLRSNSPAERALGINYARYLDESTRYDILLEMMEDTDPQVRYAAVTQLATVGSHDRQRTLKAVRKILWNTEEDASVRAGAADVLGGLRFHEAFPDLEKLFHESKDWVVRFSIIAALGEMGVREAFPILVEALHANKEPLVQLAAIGALGELGDERARVYLEPLVNSSDASIVERARFALDALDARGSERT | not failed
21 | MFITLLLFFLSAAIIYFACEFFVNGVEWVGHRFKLGATATGTVLAAFGTALPESAVTFMAVVFGTTPEQKDIGVGAAMGGPLVLATLAYAVVGLTLARTRRAGSSQVEAAINADQRRLARDQAWFMGVFVFKVALGLLAFAWKPWLGLLFLAVYGLYVKRELTREEECLDCEDLEPLKLRPRDPSPSLFWACAQTVLALAVIALASHVFVRQIELLGLAMGASPHVAALLLAPVATELPEIMNALIWVRQGKERLALANISGAMMIQATIPSAMMIQATIPSALGIFLTPWLLDAPLLAAGGFTLAAILLLWLRFRRAAMSVPALSAVGGLYALFAGYLGWHFYA | failed
